Data reported in PMC7244016, “Knock-down of the TIM/TIPIN complex promotes apoptosis in melanoma cells” (Oncotarget, 2020).

Target: T1, Timeless (TIM), full length, FLAG-tagged (human, UniProt Q9UNS1 1-1208)
T1 construct: expressed from pcDNA4-Flag-Timeless; The plasmid is named Flag-Timeless; the results speak of a fused 3xFLAG-tag; also called flag-TIM; pcDNA4-Flag-Timeless
T1 sequence (looked up): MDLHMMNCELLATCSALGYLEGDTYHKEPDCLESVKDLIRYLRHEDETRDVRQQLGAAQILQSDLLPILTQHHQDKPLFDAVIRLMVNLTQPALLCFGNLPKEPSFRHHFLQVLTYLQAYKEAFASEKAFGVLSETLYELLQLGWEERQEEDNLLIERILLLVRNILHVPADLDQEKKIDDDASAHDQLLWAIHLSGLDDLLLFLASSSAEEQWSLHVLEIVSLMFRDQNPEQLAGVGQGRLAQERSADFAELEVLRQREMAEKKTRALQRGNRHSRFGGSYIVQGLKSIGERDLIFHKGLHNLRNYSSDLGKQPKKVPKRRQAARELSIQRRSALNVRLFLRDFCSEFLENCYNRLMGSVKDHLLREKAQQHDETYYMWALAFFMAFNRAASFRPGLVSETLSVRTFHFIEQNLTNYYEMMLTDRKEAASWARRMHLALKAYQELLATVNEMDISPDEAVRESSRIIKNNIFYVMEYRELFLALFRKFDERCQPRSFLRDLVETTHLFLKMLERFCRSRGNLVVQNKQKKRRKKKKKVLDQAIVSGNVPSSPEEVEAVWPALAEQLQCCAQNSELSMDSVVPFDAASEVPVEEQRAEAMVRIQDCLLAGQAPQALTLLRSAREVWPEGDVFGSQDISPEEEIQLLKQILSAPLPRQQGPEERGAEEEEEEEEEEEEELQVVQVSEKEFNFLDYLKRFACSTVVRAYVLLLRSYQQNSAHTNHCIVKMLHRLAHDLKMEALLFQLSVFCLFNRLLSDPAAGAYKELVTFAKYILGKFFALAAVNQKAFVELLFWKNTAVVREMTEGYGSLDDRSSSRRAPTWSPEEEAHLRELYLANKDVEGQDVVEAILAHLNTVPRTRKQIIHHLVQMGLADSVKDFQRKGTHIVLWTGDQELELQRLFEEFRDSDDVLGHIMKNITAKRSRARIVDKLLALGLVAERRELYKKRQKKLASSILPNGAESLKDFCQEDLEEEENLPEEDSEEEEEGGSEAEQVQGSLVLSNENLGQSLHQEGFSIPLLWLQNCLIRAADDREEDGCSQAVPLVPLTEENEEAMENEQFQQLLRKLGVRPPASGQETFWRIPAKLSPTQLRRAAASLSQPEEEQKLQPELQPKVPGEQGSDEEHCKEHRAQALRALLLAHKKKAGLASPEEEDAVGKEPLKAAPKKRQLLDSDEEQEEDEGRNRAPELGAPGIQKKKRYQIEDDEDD
Assay: SEC; complex co-expressed in 293F cells and FLAG-purified; Superose 6 column in 50 mM HEPES pH 7.8, 150 mM NaCl, 0.5 mM TCEP; peak fractions checked by SDS-PAGE/Coomassie and immunoblot with TIM and TIPIN antibodies
Conditions: both partners purified

B1: TIM-interacting protein (TIPIN), full length, FLAG-tagged (natural protein, human, UniProt Q9BVW5 1-301, looked up)
chain: MLEPQENGVIDLPDYEHVEDETFPPFPPPASPERQDGEGTEPDEESGNGAPVRVPPKRTVKRNIPKLDAQRLISERGLPALRHVFDKAKFKGKGHEAEDLKMLIRHMEHWAHRLFPKLQFEDFIDRVEYLGSKKEVQTCLKRIRLDLPILHEDFVSNNDEVAENNEHDVTSTELDPFLTNLSESEMFASELSRSLTEEQQQRIERNKQLALERRQAKLLSNSQTLGNDMLMNTPRAHTVEEVNTDEDQKEESNGLNEDILDNPCNDAIANTLNEEETLLDQSFKNVQQQLDATSRNITEAR
notes: expressed from pcDNA3-Flag-Tipin; also called flag-TIPIN; pcDNA3-Flag-Tipin
stoichiometry N: 1
